The text below walks through data of paper PMC5789857 (Nature Communications, 2018).

The assay concerns the target TBEV envelope protein (E-protein), strain Hypr, in the purified virion (tick-borne encephalitis virus, strain …, UniProt Q01299). The assay is described as follows: cell-based or functional assay.

B1: Fab fragment of neutralizing mouse monoclonal antibody 19/1786 (Fab, V domains shown)
VH: EVKLEESGGGLVQPGGSLKLSCAASGFTFSSYGMSWVRQTPDKRLELVAATNSDGDSTYYPDSVKGRFTISRDRAKNTLYLQMSSLKSEDTAMYYCTRVLYDYDGEFAYWGQGTLVTVSA
VL: DIVMTQSQKFMSTSVGDRVTVTCKASQNVGTNVAWYQQKPGQSPKGLIYSASYRYSGVPDRFIGSGSGTDFTLTISNVQSGDLAEYFCQQYNNHPLTFGAGTKLELK
Turning to B1, the “neutralisation of TBEV (cytolysis of porcine kidney stable cells), EC50” value worked out at 35 µg/mL.
